According to patent US20250011363A1, “OPTIMIZED SHORTENED PEPTIDE THAT BINDS TO ACETYLCHOLINE RECEPTOR, AND USE THEREOF” (SKINMED CO., LTD., priority 2021, published 2025):

Each substance was assayed against acetylcholine receptor (Homo sapiens, UniProt P02708) (assay: SPR binding affinity (RU) of optimized 5mer/6mer/7mer peptides, Examples 6-7). Conditions: 6mer-1 Top sequence; SPR; peptides tested at 10 μM.
Procedure, shortened: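 Using surface plasmon resonance, binding to the acetylcholine receptor was measured for each sequence at a single 10 μM concentration. Values are response units.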

acetylcholine receptor, sequence (P02708 21-457): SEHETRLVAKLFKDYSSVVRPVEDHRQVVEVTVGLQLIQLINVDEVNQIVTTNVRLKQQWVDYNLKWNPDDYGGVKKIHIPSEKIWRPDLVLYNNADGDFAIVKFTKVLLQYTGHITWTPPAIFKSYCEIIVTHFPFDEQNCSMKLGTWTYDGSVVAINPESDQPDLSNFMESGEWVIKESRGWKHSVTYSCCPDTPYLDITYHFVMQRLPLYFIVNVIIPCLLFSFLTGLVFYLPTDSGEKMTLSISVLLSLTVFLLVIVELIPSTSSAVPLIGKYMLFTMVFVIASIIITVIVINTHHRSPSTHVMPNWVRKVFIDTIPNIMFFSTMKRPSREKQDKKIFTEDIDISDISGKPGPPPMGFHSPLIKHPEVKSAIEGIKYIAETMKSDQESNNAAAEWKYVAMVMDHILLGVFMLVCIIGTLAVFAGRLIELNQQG

Substance	Binding affinity [Ru]
6mer-1-341 (RKQQQR)	128
6mer-1-373 (KRGVLK)	149
6mer-1-264 (RRQYQR)	128
6mer-1-204 (KKRQRR)	154
6mer-1-255 (KKGFQK)	139
6mer-1-284 (KRSRQK)	145

Same assay, conditions: 6mer-2 Top sequence; SPR; peptides tested at 10 μM

Substance	Binding affinity [Ru]
6mer-2-118 (KWFSRR)	135
6mer-2-77 (KQQTRR)	123
6mer-2-177 (RSVTKK)	136
6mer-2-20 (RVQTRR)	137
6mer-2-120 (RRQCRK)	146
6mer-2-171 (RQQTRR)	139
6mer-2-184 (KWVSRR)	136
6mer-2-25 (KQVQKR)	148
6mer-2-15 (KQVRKR)	133

Same assay, conditions: SPR, Resonance Units; 5mer Bottom sequence (bottom combinations); peptides tested at 10 μM

Substance	Binding affinity [Ru]
5mer-913 (KHTFK)	13
5mer-1070 (RETGK)	26
5mer-700 (RAWER)	17
5mer-678 (KYMGR)	23
5mer-803 (RFSDR)	11
5mer-784 (RACEK)	21
5mer-1046 (KHTMR)	19
5mer-1055 (KHHEK)	15
5mer-1101 (KYKNR)	11
5mer-1032 (RHHMR)	23
5mer-901 (KCTNR)	30
5mer-785 (KPTIR)	31
5mer-1059 (RMAGR)	29
5mer-718 (RNKKK)	19
5mer-941 (KNHHR)	21
5mer-924 (RNEKK)	27
5mer-795 (RTKKR)	20

Same assay, conditions: SPR, Resonance Units; peptides tested at 10 μM; 6mer-1 Bottom sequence

Substance	Binding affinity [Ru]
6mer-1-1103 (KREDNK)	27
6mer-1-1099 (RRKTDR)	24
6mer-1-1058 (KRFPWR)	21
6mer-1-1187 (RRHAHK)	26
6mer-1-1075 (KKPSVK)	38

Same assay, conditions: SPR, Resonance Units; peptides tested at 10 μM; 6mer-1 Bottom sequence (Table 11)

Substance	Binding affinity [Ru]
6mer-1-727 (RKANGK)	29
6mer-1-730 (KRATFR)	13
6mer-1-731 (RRIKAR)	18
6mer-1-787 (KKESIK)	16
6mer-1-745 (KKTMEK)	11
6mer-1-708 (KKKHEK)	14
6mer-1-609 (RKNPVR)	24
6mer-1-675 (KKIWKR)	21
6mer-1-701 (RRKTWR)	13

Same assay, conditions: SPR, Resonance Units; peptides tested at 10 μM; 6mer-2 Bottom sequence

Substance	Binding affinity [Ru]
6mer-2-838 (RCTVRK)	13
6mer-2-970 (KDDVRR)	27
6mer-2-866 (RDNPKK)	24
6mer-2-913 (KFKNRR)	25
6mer-2-903 (KKNPKK)	40
6mer-2-978 (KEPHRR)	28
6mer-2-988 (KMCEKK)	41
6mer-2-670 (RKWHKR)	33
6mer-2-979 (KKAFKK)	22
6mer-2-728 (RMTMKK)	23
6mer-2-863 (RKHWRR)	17
6mer-2-624 (KPPIRK)	33
6mer-2-986 (KNWARR)	27
6mer-2-618 (KHHKKR)	12

Same assay, conditions: SPR, Resonance Units; peptides tested at 10 μM; 6mer-2 Top sequence

Substance	Binding affinity [Ru]
6mer-2-408 (KQIYRR)	139
6mer-2-508 (RVFLKK)	121
6mer-2-557 (KWVLRK)	123

Same assay, conditions: SPR, Resonance Units; peptides tested at 10 μM; 6mer-2 Top sequence (Table 12)

Substance	Binding affinity [Ru]
6mer-2-381 (KVYRRR)	139
6mer-2-281 (KGQRKK)	149
6mer-2-302 (KQICKK)	148
6mer-2-333 (KRFRRK)	139
6mer-2-290 (RQLYRK)	135

Same assay, conditions: SPR, peptides at 10 μM; 6mer-2 Bottom sequence

Substance	Binding affinity [Ru]
6mer-2-1010 (RANHKK)	36
6mer-2-1194 (KYCDRK)	35
6mer-2-1139 (KAKAKK)	39
6mer-2-1189 (KTAPKK)	40
6mer-2-1001 (RKKFKK)	37
6mer-2-1093 (KTTDKK)	43
6mer-2-1021 (RYTPKR)	39
6mer-2-1177 (RASEKR)	41
6mer-2-997 (KISFKK)	30
6mer-2-1016 (RNEEKR)	41

Same assay, conditions: SPR, peptides tested at 10 μM; 5mer Top sequence

Substance	Binding affinity [Ru]
5mer-336 (KSVSR)	83
5mer-361 (RSYQR)	58
5mer-49 (KWRTR)	62
5mer-18 (RQLRR)	69
5mer-455 (RWLYK)	61
5mer-186 (KRLQR)	64
5mer-470 (KQRSK)	57
5mer-181 (RSLLK)	72
5mer-3 (KRVLK)	66
5mer-66 (KRLLR)	80
5mer-510 (RQLSK)	71
5mer-161 (KWVTK)	52
5mer-442 (KVRLR)	61

Same assay, conditions: SPR, peptides tested at 10 μM; 5mer Top sequence (top combinations)

Substance	Binding affinity [Ru]
5mer-562 (RVRQR)	70
5mer-233 (RVYYK)	84
5mer-232 (KWYTR)	71
5mer-293 (RQYYR)	83
5mer-251 (KRISK)	70
5mer-543 (RLRLK)	65

Same assay, conditions: SPR, peptides tested at 10 μM; 6mer-1 Bottom sequence (Table 11)

Substance	Binding affinity [Ru]
6mer-1-830 (KKTTMK)	33
6mer-1-828 (RRPNMK)	26
6mer-1-943 (KKEHDK)	43

Same assay, conditions: SPR, peptides tested at 10 μM; 6mer-1 Top sequence

Substance	Binding affinity [Ru]
6mer-1-436 (KKLFYK)	148
6mer-1-447 (RRRQQK)	146

Same assay, conditions: SPR, peptides tested at 10 μM; 6mer-1 Top sequence (top combinations)

Substance	Binding affinity [Ru]
6mer-1-83 (RRSFLR)	146
6mer-1-18 (KKQFTR)	145
6mer-1-28 (RRWISK)	125
6mer-1-87 (KKQVYK)	139
6mer-1-116 (RKVRCK)	139
6mer-1-35 (RRGRQR)	136
6mer-1-143 (KRGVLR)	145
6mer-1-191 (KKQILK)	139
6mer-1-49 (RRWQTR)	149

Same assay, conditions: SPR; XRRGVRR-7mer and RRGVRRX-7mer

Substance	Binding affinity, values relative to the RRGVRR sequence
3671 (RRGVRRS) [compound 3671]	118
3665 (RRGVRRP) [compound 3665]	142
3675 (RRGVRRQ) [compound 3675]	105

Same assay, conditions: SPR; XRRQRR-6mer and RRQRRX-6mer

Substance	Binding affinity, relative value to the RRQRR sequence
3601 (GRRQRR) [compound 3601]	132

Same assay, conditions: SPR; peptides tested at 10 μM; 5mer Bottom sequence

Substance	Binding affinity [Ru]
5mer-834 (RMNIK)	15
5mer-898 (RYCMR)	20
5mer-844 (KTDPR)	32
5mer-890 (KKHFK)	33
